Patent US20180037644A1 (Pfizer, published 2018)
Like-named read-outs stand apart in the source and are kept apart here.

T1: human IL-33 (mm2) (human, UniProt O95760 112-270)
T1 chain: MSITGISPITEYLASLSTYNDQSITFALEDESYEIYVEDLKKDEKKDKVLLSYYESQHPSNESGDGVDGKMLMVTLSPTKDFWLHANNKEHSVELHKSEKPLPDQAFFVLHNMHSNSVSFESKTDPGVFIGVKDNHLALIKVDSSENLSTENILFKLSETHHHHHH

T2: cynomolgus monkey IL-33 (cys mut) (cynomolgus monkey)
T2 chain: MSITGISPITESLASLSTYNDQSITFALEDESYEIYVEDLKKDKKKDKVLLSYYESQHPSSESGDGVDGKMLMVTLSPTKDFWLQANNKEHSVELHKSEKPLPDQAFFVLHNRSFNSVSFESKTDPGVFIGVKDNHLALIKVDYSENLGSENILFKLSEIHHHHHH

T3: native human IL-33 from human lung fibroblast (HFL-1) lysate (human, UniProt O95760 1-270, limits assumed)
T3 sequence (looked up): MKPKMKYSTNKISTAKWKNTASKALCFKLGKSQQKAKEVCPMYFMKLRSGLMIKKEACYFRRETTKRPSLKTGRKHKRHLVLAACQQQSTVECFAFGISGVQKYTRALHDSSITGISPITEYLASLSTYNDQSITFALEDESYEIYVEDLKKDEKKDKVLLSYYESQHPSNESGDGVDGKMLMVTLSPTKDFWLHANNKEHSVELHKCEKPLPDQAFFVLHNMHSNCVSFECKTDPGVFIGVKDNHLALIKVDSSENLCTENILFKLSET

T4: human IL-33 WT (R&D) (human, UniProt O95760 112-270)
T4 sequence: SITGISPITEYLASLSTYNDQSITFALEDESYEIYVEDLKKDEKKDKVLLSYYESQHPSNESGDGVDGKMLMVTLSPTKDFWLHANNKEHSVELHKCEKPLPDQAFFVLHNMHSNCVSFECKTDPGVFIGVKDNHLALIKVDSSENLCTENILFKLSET


Assays:
human IL-33 (mm2) [1] = target: T1, human IL-33 (mm2); test: cell-based or functional assay
[2] = target: T2, cynomolgus monkey IL-33 (cys mut); test: cell-based or functional assay
[3] = target: T2, cynomolgus monkey IL-33 (cys mut); test: cell-based or functional assay
[4] = target: T3, native human IL-33 from human lung …; test: cell-based or functional assay
human IL-33 (mm2) [5] = target: T1, human IL-33 (mm2); test: SPR, IgG captured by anti-human Fc, IL-33 in solution
Experimental: (§1) Binding to human and cynomolgus monkey IL-33 was measured by surface plasmon resonance using a BIAcore T200 instrument. An anti-human Fc antibody was immobilized on a CM5 chip, and anti-IL-33 antibodies were captured.

[6] = target: T2, cynomolgus monkey IL-33 (cys mut); test: as above
Experimental: as §1

human IL-33 (mm2) [7] = target: T1, human IL-33 (mm2); test: cell-based or functional assay
human IL-33 WT (R&D) = target: T4, human IL-33 WT (R&D); test: cell-based or functional assay
human IL-33 (mm2) [8] = target: T1, human IL-33 (mm2); test: cell-based or functional assay

Row | Binder | IC50, HEK293 ST2 NFkB (human IL-33 (mm2) [1]) | IC50, HEK293 ST2 NFkB [2] | % inhibition at 20 nM, HEK293 ST2 NFkB [3] | % inhibition 0.1 nM Ab, HEK293 ST2 NFkB [4] | % inhibition 1 nM Ab, HEK293 ST2 NFkB [4] | % inhibition 10 nM Ab, HEK293 ST2 NFkB [4] | Kd (human IL-33 (mm2) [5]) | Kd [6] | IC50, HEK293 ST2 NFkB (human IL-33 (mm2) [7]) | IC50, HEK293 ST2 NFkB (human IL-33 WT (R&D)) | IC50, HEK293 ST2 NFkB (human IL-33 (mm2) [8]) | binding result [6] | IC50, HEK293 ST2 NFkB [3]
1 | 9B3 chimera (antibody, human IgG1, kappa, also called chimeric 9B3) heavy: EVQLVETGGGLVQPGRSLKLSCVASGFTFSNYWMYWIRQAPGMGLEWVSSINNDGGNTYYLDSVKGRFTISRNNAENTVYLQMNSLRSEDTATYYCAKGHYSYSSYSFSYWGQGTLVTVSSASTKGPSVFPLAPSSKSTSGGTAALGCLVKDYFPEPVTVSWNSGALTSGVHTFPAVLQSSGLYSLSSVVTVPSSSLGTQTYICNVNHKPSNTKVDKKVEPKSCDKTHTCPPCPAPEAAGAPSVFLFPPKPKDTLMISRTPEVTCVVVDVSHEDPEVKFNWYVDGVEVHNAKTKPREEQYNSTYRVVSVLTVLHQDWLNGKEYKCKVSNKALPAPIEKTISKAKGQPREPQVYTLPPSREEMTKNQVSLTCLVKGFYPSDIAVEWESNGQPENNYKTTPPVLDSDGSFFLYSKLTVDKSRWQQGNVFSCSVMHEALHNHYTQKSLSLSPGK light: DIQMTQSPSVLSASVGDRVTLSCKASHNINKHLDWCQQKVGEAPKLLIYFTNNLQTGIPSRFSGSGSGTDYTLTISSLQPEDVATYFCFQYNSGWTFGGGTKLELKRTVAAPSVFIFPPSDEQLKSGTASVVCLLNNFYPREAKVQWKVDNALQSGNSQESVTEQDSKDSTYSLSSTLTLSKADYEKHKVYACEVTHQGLSSPVTKSFNRGEC | – | – | 35% | 52.5% | 96% | 111% | 457 pM | 836 pM | – | – | – | – | –
2 | 14D8 chimera/hu J (antibody, human IgG1, kappa, V domains shown, also called 14D8 huJseg) VH: EVQLVDSGGDQVQPGRSLKLSCVASGFIFKNYWMTWIRQVPGKGLEWIASITNSGGNTYYPDSVKGRFTISRDNAKDTLYLQMNSLRSEDTATYYCARDRRYNSGSPFAYWGQGTLVTVSS VL: DIQLTQSPSTLPASLGERVTISCRTSQSINNNLCWYQQKPDGTVKRLIYSTSTLESGVPSRFSGSGSGTDYSLSISSLESQDFAMYYCLQYATYPWTFGQGTKVEIKR | – | – | 11% | 61.1% | 99.6% | 107% | 394 pM | – | – | – | 2030 pM | no binding (tested: 125 nM) | –
3 | 12F9 chimera (antibody, human IgG1, kappa, V domains shown, also called chimeric 12F9) VH: EVQLVESGGDLVQPGRSLKLSCVTSGFIFKNYWMTWIRQVPGKGLEWVASITNTGGATYYPDSVKGRFTISRDNSENTLYLQMNSLRSEDTATYYCARDRRYNSGSPFAYWGQGTLVTVSS VL: DIQLTQSPSTLAASLGERVTISCRASQSISNSLIWFQQKPDGTIKRLIYSSSTLESGVPSRFSGSGSGTDYSLSISSLESEDFAMYYCLQYATYPWTFGGGTKLELRR | – | – | 3.6% | 44.3% | 82.6% | 104% | 408 pM | – | – | – | 2710 pM | no binding (tested: 125 nM) | –

More lines, now with the values ahead:

Row | IC50, HEK293 ST2 NFkB (human IL-33 (mm2) [1]) | IC50, HEK293 ST2 NFkB [2] | % inhibition at 20 nM, HEK293 ST2 NFkB [3] | % inhibition 0.1 nM Ab, HEK293 ST2 NFkB [4] | % inhibition 1 nM Ab, HEK293 ST2 NFkB [4] | % inhibition 10 nM Ab, HEK293 ST2 NFkB [4] | Kd (human IL-33 (mm2) [5]) | Kd [6] | IC50, HEK293 ST2 NFkB (human IL-33 (mm2) [7]) | IC50, HEK293 ST2 NFkB (human IL-33 WT (R&D)) | IC50, HEK293 ST2 NFkB (human IL-33 (mm2) [8]) | binding result [6] | IC50, HEK293 ST2 NFkB [3] | Binder
4 | 90 pM | 204 pM | – | – | – | – | – | – | – | – | – | – | – | IL33-11 (antibody, human IgG1, kappa, V domains shown) VH: EVQLVESGGGLVQPGGSLRLSCAASGFTFSNYWMYWVRQAPGKGLEWVASITPNGGNTYYPDSVKGRFTISRDNAKNSLYLQMNSLRAEDTAVYYCARGHYYYTSYSLGYWGQGTLVTVSS VL: DIQMTQSPSSLSASVGDRVTITCKASQNINKHLDWYQQKPGKAPKLLIYFTNNLQTGVPSRFSGSGSGTDFTLTISSLQPEDFATYYCFQYNNGWTFGGGTKVEIKR
5 | 220 pM | 7650 pM | – | – | – | – | – | – | – | – | – | – | – | IL33-13 (antibody, human IgG1, kappa, V domains shown) VH: EVQLVESGGGLVQPGGSLRLSCAASGFTFSSYWMYWVRQAPGKGLEWVASITPNGGNTYYPDSVKGRFTISRDNAKNSLYLQMNSLRAEDTAVYYCARGHYSYSSYSFSYWGQGTLVTVSS VL: DIQMTQSPSSLSASVGDRVTITCKASQNINKHLDWYQQKPGKAPKLLIYFTNNLQTGVPSRFSGSGSGTDFTLTISSLQPEDFATYYCFQYNNGWTFGGGTKVEIKR
6 | – | – | – | 63.8% | 98.5% | 107% | 540 pM | 196 pM | – | – | – | – | – | 30A1 chimera/hu J (antibody, human IgG1, kappa, also called 30A1 hu Jseg) heavy: QVNLLQSGATLVKPGASMKMSCKASGYSFTDYWVSWVKQSHGKSLEWIGEIYPNSGANNFNKEFKDKATLTVDKSTSTAYMELTRLTSEDSAVYYCTRGPYYYSSQIIFAYWGQGTLVTVSSASTKGPSVFPLAPSSKSTSGGTAALGCLVKDYFPEPVTVSWNSGALTSGVHTFPAVLQSSGLYSLSSVVTVPSSSLGTQTYICNVNHKPSNTKVDKKVEPKSCDKTHTCPPCPAPEAAGAPSVFLFPPKPKDTLMISRTPEVTCVVVDVSHEDPEVKFNWYVDGVEVHNAKTKPREEQYNSTYRVVSVLTVLHQDWLNGKEYKCKVSNKALPAPIEKTISKAKGQPREPQVYTLPPSREEMTKNQVSLTCLVKGFYPSDIAVEWESNGQPENNYKTTPPVLDSDGSFFLYSKLTVDKSRWQQGNVFSCSVMHEALHNHYTQKSLSLSPGK light: IIVMTQSPKSMSISVGDRVTMNCKASQNVGNNIAWYRQKPGQSPELLIYYASNRYTGVPDRFTGGGYGTDFTLTINSVQAEDAAFYYCQRIYNSPPTFGGGTKVEIKRTVAAPSVFIFPPSDEQLKSGTASVVCLLNNFYPREAKVQWKVDNALQSGNSQESVTEQDSKDSTYSLSSTLTLSKADYEKHKVYACEVTHQGLSSPVTKSFNRGEC
7 | – | – | – | – | – | – | – | – | 95 pM | 620 pM | – | – | – | IL33-158-152 (antibody, human IgG1, kappa) heavy: EVQLVESGGGLVQPGGSLRLSCAASGFTFSSYWMYWVRQAPGKGLEWVAAITPNAGEDYYPESVKGRFTISRDNAKNSLYLQMNSLRAEDTAVYYCARGHYYYTSYSLGYWGQGTLVTVSSASTKGPSVFPLAPSSKSTSGGTAALGCLVKDYFPEPVTVSWNSGALTSGVHTFPAVLQSSGLYSLSSVVTVPSSSLGTQTYICNVNHKPSNTKVDKKVEPKSCDKTHTCPPCPAPEAAGAPSVFLFPPKPKDTLMISRTPEVTCVVVDVSHEDPEVKFNWYVDGVEVHNAKTKPREEQYNSTYRVVSVLTVLHQDWLNGKEYKCKVSNKALPAPIEKTISKAKGQPREPQVYTLPPSREEMTKNQVSLTCLVKGFYPSDIAVEWESNGQPENNYKTTPPVLDSDGSFFLYSKLTVDKSRWQQGNVFSCSVMHEALHNHYTQKSLSLSPG light: DIQMTQSPSSLSASVGDRVTITCKASQNINKHLDWYQQKPGKAPKLLIYFTNNLQTGVPSRFSGSGSGTDFTLTISSLQPEDFATYYCFQYNQGWTFGGGTKVEIKRTVAAPSVFIFPPSDEQLKSGTASVVCLLNNFYPREAKVQWKVDNALQSGNSQESVTEQDSKDSTYSLSSTLTLSKADYEKHKVYACEVTHQGLSSPVTKSFNRGEC
8 | – | – | – | 102% | 109% | 110% | 367 pM | 148 pM | – | – | 28 pM | – | 110 pM | 30B11 chimera/hu J (antibody, human IgG1, kappa, V domains shown, also called 30B11 hu Jseg) VH: QVKLLQSGAALVKPGASVKMSCATSGFSFTDYWVSWVKQSHGKGLEWIGEIYPNSGADNFNENFKGKATLTVDKSTSTAYMELSRLTSEDSAIYYCTRGPYYYSTQIIFAYWGQGTLVTVSS VL: NIVMTQSPKSMSISVGDRVTMNCKASQNVGNNLAWYQQKPGQSPKLLIYYASNRYTGVPDRFTGGGYGTDFTLTINSVQAEDAAFYYCQRIYNSPPTFGGGTKVEIKR
